This test deals with LSD1 (aa 171–852) and RCOR1 (aa 286–485) complex (truncated LC) (UniProt O60341 171-852; Q9UKL0 286-485). The test is described as follows: MST; Cy5-labelled His-tag U2AF2 fragments mixed with serially diluted truncated LSD1/RCOR1. To be noted: both partners purified.

B1: His-tag U2AF2 fragment (aa 241–471), Cy5-labelled (domain or fragment)
chain: NPSVYVPGVVSTVVPDSAHKLFIGGLPNYLNDDQVKELLTSFGPLKAFNLVKDSATGLSKGYAFCEYVDINVTDQAIAGLNGMQLGDKKLLVQRASVGAKNATLVSPPSTINQTPVTLQVPGLMSSQVQMGGHPTEVLCLMNMVLPEELLDDEEYEEIVEDVRDECSKYGLVKSIEIPRPVDGVEVPGCGKIFVEFTSVFDCQKAMQGLTGRKFANRVVVTKYCDPDSYHR
modifications: Cy5 dye at lysine residues (reactive NHS-ester dye)
notes: U2AF2, aa 241-471, composed of RRM2 and UHM; also called U2AF2 241–471; Fluor-U2AF2
Consider B1, for which the affinity, expressed as Kd, was 16 µM.

B2: His-tag U2AF2 fragment (aa 85–471), Cy5-labelled (domain or fragment)
chain: KKKVRKYWDVPPPGFEHITPMQYKAMQAAGQIPATALLPTMTPDGLAVTPTPVPVVGSQMTRQARRLYVGNIPFGITEEAMMDFFNAQMRLGGLTQAPGNPVLAVQINQDKNFAFLEFRSVDETTQAMAFDGIIFQGQSLKIRRPHDYQPLPGMSENPSVYVPGVVSTVVPDSAHKLFIGGLPNYLNDDQVKELLTSFGPLKAFNLVKDSATGLSKGYAFCEYVDINVTDQAIAGLNGMQLGDKKLLVQRASVGAKNATLVSPPSTINQTPVTLQVPGLMSSQVQMGGHPTEVLCLMNMVLPEELLDDEEYEEIVEDVRDECSKYGLVKSIEIPRPVDGVEVPGCGKIFVEFTSVFDCQKAMQGLTGRKFANRVVVTKYCDPDSYHR
modifications: Cy5 dye at lysine residues (reactive NHS-ester dye)
notes: U2AF2, aa 85-471; also called U2AF2 85–471; Fluor-U2AF2
As to B2, binding was characterised by a dissociation constant (Kd) of 14 µM.
